Laboratory results taken from the Immune Epitope Database (IEDB).

The sequences below were run against HLA-A*24:02 (assay: IEDB peptide-MHC binding, purified MHC/competitive/radioactivity; ≥ and ≤ were set here for values at or beyond the usual limits of such assays). Conditions: source organism: Human papillomavirus 16.

**Q.** For CYSLYGTTL, which IC50 is on record?
**A.** 137 nM

**Q.** Which IC50 does the source give for FYSRIREL here?
**A.** 461 nM

**Q.** For RAHYNIVTF, which IC50 is on record?
**A.** 290 nM

**Q.** How did the IC50 turn out when RFHNIRGRW was run?
**A.** 220 nM

**Q.** For VYDFAFRDL, which IC50 is on record?
**A.** 360 nM

Each sequence was assayed against HLA-A*03:01 in the same assay as above. Conditions: source organism: Human papillomavirus 16.

**Q.** How did the IC50 turn out when AMFQDPQER was run?
**A.** 290 nM

**Q.** For HLDKKQRFH, which IC50 is on record?
**A.** 68 nM

**Q.** Which IC50 does the source give for LLIRCINCQK here?
**A.** 92 nM

These sequences were tested against HLA-A*11:01 in the same assay as above. Conditions: source organism: Human papillomavirus 16.

**Q.** For AMFQDPQER, which IC50 is on record?
**A.** 12 nM

**Q.** With AVCDKCLK as the sequence, how does the IC50 read?
**A.** 496 nM

**Q.** DIILECVYCK was tested. Which IC50 did it give?
**A.** 280 nM

**Q.** FQDPQERPRK was tested. Which IC50 did it give?
**A.** 453 nM

**Q.** Which IC50 does the source give for GIVCPICSQK here?
**A.** 98 nM

**Q.** Which IC50 does the source give for GTTLEQQYNK here?
**A.** 6 nM

**Q.** IILECVYCK was tested. Which IC50 did it give?
**A.** 125 nM

**Q.** Which IC50 does the source give for ISEYRHYCY here?
**A.** 166 nM

**Q.** With IVYRDGNPY as the sequence, how does the IC50 read?
**A.** 21 nM

**Q.** How did the IC50 turn out when LLIRCINCQK was run?
**A.** 24 nM

**Q.** Which IC50 does the source give for TTLEQQYNK here?
**A.** 6 nM

The sequences below were run against HLA-A*01:01 in the same assay as above. Conditions: source organism: Human papillomavirus 16.

**Q.** For ETTDLYCY, which IC50 is on record?
**A.** 320 nM

**Q.** How did the IC50 turn out when ISEYRHYCY was run?
**A.** 49 nM

**Q.** YSKISEYRHY was tested. Which IC50 did it give?
**A.** 147 nM

What follows are sequences tested against HLA-A*24:02 (assay: IEDB peptide-MHC binding, purified MHC/competitive/radioactivity; filed as Kd, often an IC50 or EC50 that approximates it; ≥ and ≤ were set here for values at or beyond the usual limits of such assays). Conditions: source organism: Human papillomavirus 16.

**Q.** LLRREVYDF was tested. Which Kd did it give?
**A.** 4780 nM

**Q.** With MHQKRTAMF as the sequence, how does the Kd read?
**A.** 4490 nM

Each sequence was assayed against HLA-A*03:01 in the same assay as above. Conditions: source organism: Human papillomavirus 16.

**Q.** With IILECVYCK as the sequence, how does the Kd read?
**A.** 3700 nM

**Q.** How did the Kd turn out when SLYGTTLEQ was run?
**A.** 3750 nM

The sequences below were run against HLA-A*11:01 in the same assay as above. Conditions: source organism: Human papillomavirus 16.

**Q.** For QQLLRREVY, which Kd is on record?
**A.** 1190 nM

Each sequence was assayed against HLA-A*01:01 in the same assay as above. Conditions: source organism: Human papillomavirus 16.

**Q.** EIDGPAGQA was tested. Which Kd did it give?
**A.** 3240 nM

**Q.** With HVDIRTLED as the sequence, how does the Kd read?
**A.** 3760 nM

**Q.** How did the Kd turn out when QAEPDRAHY was run?
**A.** 2790 nM

**Q.** Which Kd does the source give for TTDLYCYEQ here?
**A.** 3760 nM
